Test results: patent publication US20250019450A1 (DIAGONAL THERAPEUTICS, published 2025)

T1: human IL-12Rβ2, Acro (BLI analyte) (human, UniProt Q99665 24-622, limits assumed)
T1 sequence (looked up): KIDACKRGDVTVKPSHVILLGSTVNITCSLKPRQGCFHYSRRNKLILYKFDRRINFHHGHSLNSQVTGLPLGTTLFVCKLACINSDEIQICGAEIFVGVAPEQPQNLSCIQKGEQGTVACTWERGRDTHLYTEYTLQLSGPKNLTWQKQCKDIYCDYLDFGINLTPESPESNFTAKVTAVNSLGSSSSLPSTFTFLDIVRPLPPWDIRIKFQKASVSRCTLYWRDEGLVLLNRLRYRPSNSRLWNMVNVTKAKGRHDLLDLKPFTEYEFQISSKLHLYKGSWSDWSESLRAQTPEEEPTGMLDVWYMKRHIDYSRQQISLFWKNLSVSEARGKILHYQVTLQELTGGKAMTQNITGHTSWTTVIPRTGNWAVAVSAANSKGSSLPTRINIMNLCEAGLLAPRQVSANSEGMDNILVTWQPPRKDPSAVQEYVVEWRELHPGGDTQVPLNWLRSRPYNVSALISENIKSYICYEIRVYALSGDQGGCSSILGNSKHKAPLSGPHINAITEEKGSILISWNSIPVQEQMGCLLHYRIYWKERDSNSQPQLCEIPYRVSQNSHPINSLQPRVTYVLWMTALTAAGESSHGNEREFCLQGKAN


What was measured:
[1] = target: human IL-12 receptor (IL-12Rβ1 and IL-12Rβ2) on HEK-Blue IL-12 cells (human, UniProt P42701 24-662; Q99665 24-862); assay: cell-based or functional assay
[2] = target: T1, human IL-12Rβ2, Acro (BLI analyte); assay: BLI (Octet), antibody on AHC tip
[3] = target: human IL-12Rβ1, Acro (BLI analyte) (human, UniProt P42701 24-545); assay: BLI (Octet), antibody on AHC tip

Row | Binder | EC50 [1] | Max Absorbance [1] | Kd [2] | Kd [3]
1 | DGL569 (bispecific antibody, V domains shown, 233B1 x 19B2) V domain 1: QVQLVESGGGLVQAGGSLRLSCAASRSISSFNEMAWYRQAPGEQRELVATIVSTVGFTNYADSVKGRFTISRDNAKNTVYLQMNSLKAEDTAVYYCNARRISTDYWGQGTQVTVEP V domain 2: QVQLVESGGGLVQPGGSLRLSCAASGFTFSNYAMSWVRQAPGKGLEWVSAINSDGTSTSYADSVKGQFTISRDNAKNTLYLQMNSLKPEDTAVYYCTKWEGDTDSDYKFKDYWGQGTQVTVEP | 5.2e-09 M (implied) | 1.19 | 0.723 nM | 1.7 nM
2 | DGL495 (bispecific antibody, V domains shown) V domain 1: EVQLVESGGGLVQAGGSLRLSCAASGLTFRNYAMAWFRQAPGKEREFVAGITWGGGLTHYVDSVKGRFTISRDNGKNTVYLQMNSLKSEDTAVYYCAGKTQGSTWYHLTPDGYDYWGQGTQVTVEP V domain 2: QVQLVESGGGLVQPGGSLRLSCAASGFTFSNYAMSWVRQAPGKGLEWVSAINSDGTSTSYADSVKGQFTISRDNAKNTLYLQMNSLKPEDTAVYYCTKWEGDTDSDYKFKDYWGQGTQVTVEP | 6.4e-10 M (implied) | 0.96 | 0.77 nM | 10.7 nM
3 | DGL572 (bispecific antibody, V domains shown, 233B1 x 93B2) V domain 1: QVQLVESGGGLVQAGGSLRLSCAASRSISSFNEMAWYRQAPGEQRELVATIVSTVGFTNYADSVKGRFTISRDNAKNTVYLQMNSLKAEDTAVYYCNARRISTDYWGQGTQVTVEP V domain 2: QVQLVESGGGLVQPGGSLRLSCAASGFTFEPYDMSWFRQAPGKGPEWVSAIDKGGGAGATYYADSVKGRFTISRDNAKKTLYLQMKSLKPEDTAVYYCAITAGPYSDSTPRVAYRGEGTQVTVEP | 1.2e-08 M (implied) | 1.05 | 2.41 nM | 1.48 nM
4 | DGL481 (bispecific antibody, V domains shown, 67B1 x 19B2) V domain 1: QVQLVESGGGLVQAGGSLRLSCAASARIFNSYAVAWFRQTPGKEREFVASISWSGGSTNYADSVKGRFTISRDNAKNTVFLQMNSLKPADTAVYYCAADRNYYPSVLGKYTYWGQGTQVTVEP V domain 2: QVQLVESGGGLVQPGGSLRLSCAASGFTFSNYAMSWVRQAPGKGLEWVSAINSDGTSTSYADSVKGQFTISRDNAKNTLYLQMNSLKPEDTAVYYCTKWEGDTDSDYKFKDYWGQGTQVTVEP | 3.3e-10 M (implied) | 0.93 | 0.772 nM | 7.17 nM
5 | DGL570 (bispecific antibody, V domains shown, 233B1 x 64B2) V domain 1: QVQLVESGGGLVQAGGSLRLSCAASRSISSFNEMAWYRQAPGEQRELVATIVSTVGFTNYADSVKGRFTISRDNAKNTVYLQMNSLKAEDTAVYYCNARRISTDYWGQGTQVTVEP V domain 2: QVQLVESGGGLVQPGGSLRLSCAASGFTFSSKAMHWFRQAPGKGLEWVSSINSGGAITYYKDSVKGRFTVSRDNAKNILYLEMNSLKPEDTALYYCATDTDGRTRGQGTQVTVEP | > 100 nM | 1.44 | 7.66 nM | 1.38 nM
6 | DGL568 (bispecific antibody, V domains shown, 233B1 x 13B2) V domain 1: QVQLVESGGGLVQAGGSLRLSCAASRSISSFNEMAWYRQAPGEQRELVATIVSTVGFTNYADSVKGRFTISRDNAKNTVYLQMNSLKAEDTAVYYCNARRISTDYWGQGTQVTVEP V domain 2: QVQLVESGGGLVRPGGSLRLSCAASGFTFSSNGMHWFRQAPGKGLEWVSSIGSGGTSIYYADSVKGRFTISRDNAKNTLYLQMNSLKSDDTAVYYCSKEVTGATRGQGTQVTVEP | > 100 nM | 0.91 | 2.34 nM | 1.78 nM
7 | DGL424 (bispecific antibody, human IgG1, lambda, 54B1 x 85802_10K12A) heavy 1: not shown heavy 2: QVTLRESGPALVKPTQTLTLTCTFSGFSLSTSGMCVSWIRQPPGKALEWLALIYWDDDKYYSTSLKTRLTISKDTSKNQVVLTMTNMDPVDTATYYCARMRRGIEAFDIWGQGTMVTVFSASTKGPSVFPLAPSSKSTSGGTAALGCLVKDYFPEPVTVSWNSGALTSGVHTFPAVLQSSGLYSLSSVVTVPSSSLGTQTYICNVNHKPSNTKVDKKVEPKSCDKTHTCPPCPAPEAAGAPSVFLFPPKPKDTLMISRTPEVTCVVVDVSHEDPEVKFNWYVDGVEVHNAKTKPREEQYNSTYRVVSVLTVLHQDWLNGKEYKCKVSNKALPAPIEKTISKAKGQPREPQVCTLPPSRDELTKNQVSLSCAVKGFYPSDIAVEWESNGQPENNYKTTPPVLDSDGSFFLVSKLTVDKSRWQQGNVFSCSVMHEALHNRFTQKSLSLSPG light: QSVLTQPPSVSGAPGQRVTISCTGSSSNIGAGYDVHWYQQLPGTAPKLLIFGYSNRPSGVPVRFSGSKSGTSASLAITGLLAEDEADFYCQSFDISLTGWVFGGGTKLTVLGQPKAAPSVTLFPPSSEELQANKATLVCLISDFYPGAVTVAWKADSSPVKAGVETTTPSKQSNNKYAASSYLSLTPEQWKSHRSYSCQVTHEGSTVEKTVAPTECS | 2.6e-10 M (implied) | 1.49 | 0.726 nM | 
8 | DGL516 (bispecific antibody, V domains shown, 97B1 x 93B2) V domain 1: QVQLVESGGGLAQAGGSLRLSCAASGRTFSNDDMAWFRQAPGKEREFVAHIDRNAASTNYADSVKGRFTISRDNAKNTVYLQMTRLKPEDTAVYYCAADPDHFGTTWYQQYTYWGPGTQVTVEP V domain 2: QVQLVESGGGLVQPGGSLRLSCAASGFTFEPYDMSWFRQAPGKGPEWVSAIDKGGGAGATYYADSVKGRFTISRDNAKKTLYLQMKSLKPEDTAVYYCAITAGPYSDSTPRVAYRGEGTQVTVEP | 6.5e-11 M (implied) | 1.05 | 3.41 nM | 27.3 nM
9 | DGL514 (bispecific antibody, V domains shown, 97B1 x 67B2) V domain 1: QVQLVESGGGLAQAGGSLRLSCAASGRTFSNDDMAWFRQAPGKEREFVAHIDRNAASTNYADSVKGRFTISRDNAKNTVYLQMTRLKPEDTAVYYCAADPDHFGTTWYQQYTYWGPGTQVTVEP V domain 2: QVQLVESGGGLVQPGGSLRLSCAASGFTFSNYAMSWIRQGPERGFEWVSRINSGGGTTSYADSVKGRFTISRDNAKNTLYLQMNSLKPEDTAVYYCAKHSHPDYSSNYYRPGQGTQVTVEP | 3.5e-11 M (implied) | 0.85 | 5.48 nM | 9.86 nM
10 | DGL606 (bispecific antibody, V domains shown, 238B1 x 219B2) V domain 1: QLQLVESGGGLVQPGGSLRLSCAASGFTFSSYGMSWVRQAPGKGLEWVSYISAGGGTTTYVDFVKGRFTISRDNAKNMLYLQMNSLKPEDTAVYYCVHAADGSRGQGTQVTVEP V domain 2: QVQLEESGGGLVQAGGSLRLSCAASGRTFSSYVVGWFRQAPGKEREFVGRISWSGARTYYADSVEGRFTISRDNAKNTVYLQMNSLKPEDTAVYYCAADLKWEVLLSEHYEYWGQGTQVTVEP | 8.8e-09 M (implied) | 0.92 | 6.03 nM | 2.68 nM
11 | DGL601 (bispecific antibody, human IgG1, lambda, 85801_04M04A x 19B2) heavy 1: not shown heavy 2: QVQLVESGGGLVQPGGSLRLSCAASGFTFSNYAMSWVRQAPGKGLEWVSAINSDGTSTSYADSVKGQFTISRDNAKNTLYLQMNSLKPEDTAVYYCTKWEGDTDSDYKFKDYWGQGTQVTVEPKSSDKTHTCPPCPAPEAAGAPSVFLFPPKPKDTLMISRTPEVTCVVVDVSHEDPEVKFNWYVDGVEVHNAKTKPREEQYNSTYRVVSVLTVLHQDWLNGKEYKCKVSNKALPAPIEKTISKAKGQPREPQVCTLPPSRDELTKNQVSLSCAVKGFYPSDIAVEWESNGQPENNYKTTPPVLDSDGSFFLVSKLTVDKSRWQQGNVFSCSVMHEALHNRFTQKSLSLSPG light: SSELTQDPAVSVALGQTVRITCQGDSLSSYYAGWYQQKPGQAPVLVIYGKNNRPSGIPDRFSGSSSEDTASLTITGAQAEDEADYYCNSRDSSDNHLVFGGGTKLTVLGQPKAAPSVTLFPPSSEELQANKATLVCLISDFYPGAVTVAWKADSSPVKAGVETTTPSKQSNNKYAASSYLSLTPEQWKSHRSYSCQVTHEGSTVEKTVAPTECS | 6.6e-11 M (implied) | 0.79 | 0.682 nM | 1.63 nM
